Consider two molecules from paper PMC5945547, “SAAV2152 is a single-stranded DNA binding protein: the third SSB in Staphylococcus aureus” (Oncotarget, 2018).

The term stoichiometry N denotes a count of units in the complex or per binding partner.

One assay has as its target T1, SaPriA (Staphylococcus aureus, UniProt Q2G266).
T1 construct: gene priA; recombinant
T1 sequence (Q2G266 1-802): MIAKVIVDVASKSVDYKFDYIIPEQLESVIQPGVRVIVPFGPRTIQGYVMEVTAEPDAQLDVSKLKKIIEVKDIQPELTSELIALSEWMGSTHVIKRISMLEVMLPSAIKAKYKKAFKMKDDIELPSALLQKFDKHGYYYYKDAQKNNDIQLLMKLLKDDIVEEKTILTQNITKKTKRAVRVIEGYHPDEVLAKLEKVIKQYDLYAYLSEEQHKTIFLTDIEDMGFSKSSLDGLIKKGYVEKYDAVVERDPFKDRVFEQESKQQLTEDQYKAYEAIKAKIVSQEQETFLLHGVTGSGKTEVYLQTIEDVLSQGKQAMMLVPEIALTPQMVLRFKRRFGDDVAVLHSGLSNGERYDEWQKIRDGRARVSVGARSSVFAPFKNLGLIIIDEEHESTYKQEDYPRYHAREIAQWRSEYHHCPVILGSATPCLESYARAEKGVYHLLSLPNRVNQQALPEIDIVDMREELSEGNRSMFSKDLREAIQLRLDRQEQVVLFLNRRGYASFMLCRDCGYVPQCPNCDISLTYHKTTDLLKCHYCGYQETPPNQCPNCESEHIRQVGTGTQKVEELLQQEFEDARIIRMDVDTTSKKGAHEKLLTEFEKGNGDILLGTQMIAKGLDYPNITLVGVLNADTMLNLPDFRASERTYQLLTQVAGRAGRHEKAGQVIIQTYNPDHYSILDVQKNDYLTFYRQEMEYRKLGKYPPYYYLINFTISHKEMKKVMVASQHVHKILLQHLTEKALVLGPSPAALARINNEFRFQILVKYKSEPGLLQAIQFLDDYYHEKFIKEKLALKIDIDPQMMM
As to the kind of experiment: ATPase assay, thin-layer chromatography with autoradiography. The class given is biochemical. As to conditions: 0.4 mM [γ-32P]ATP, 0.12 μM SaPriA, 0.1 μM PS4/PS3-dT30 DNA, 40 mM Tris pH 8.0, 10 mM NaCl, 2 mM DTT, 2.5 mM MgCl2, 1 h; labelled compound.

Assay [1] addresses SaSsbC with a His tag (product of S. aureus ssb gene SAAV2152) (S. aureus subsp. aureus ED98). Nature of the assay: cross-linking; glutaraldehyde (0.1% to 5%), SaSsbC 2.5 uM, 4 C, 30 min, Coomassie-stained SDS-PAGE; self-association, tetramer.
Assay [2] has the same target. As to the kind of experiment: SEC; gel filtration, Superdex 200 prep grade, SaSsbC 2 mg/mL in Buffer B (20 mM HEPES, 100 mM NaCl, pH 7.0), column calibrated with proteins of known mass; self-association, tetramer. (In general: SEC sorts molecules by how far they enter the pores of the column.)

`Nc1ncnc2c1ncn2[C@@H]1O[C@H](COP(=O)(O)OP(=O)(O)OP(=O)(O)O)[C@@H](O)[C@H]1O` [ATP]: the “ATPase assay, thin-layer chromatography with autoradiography” value on SaPriA is “SaPriA could hydrolyze ATP on its own”. For “SaSsbC with a His tag (product of S. aureus ssb gene SAAV2152) (natural protein)”, the stoichiometry N in assay [1] and in assay [2] was 4 throughout.
